# Assay results published in US12397037B2, “Methods and compositions for immunomodulation” (CHILDREN'S MEDICAL CENTER CORPORATION, priority 2014, dated 2025).
# Tested on: U87MG cells
# Assay: Human Phospho-Kinase Array, U87MG cells treated with SEMA3F
# Format: cell-based
# Details: 30 minutes
# Procedure: FIG. 28A depicts U87MG cells untreated (control) or following treatment with SEMA3F (640 ng/ml) for 30 minutes. Cell lysates were evaluated by phosphoprotein kinase antibody array. FIG. 28B depicts results of the array validated by Western blot analysis. FIG. 28C depicts U87MG cells treated with SEMA3F (640 ng/ml) as a time course up to 60 minutes and were analyzed by Western blot. FIGS. 28B-28C are representative of 3 independent experiments. FIG. 28D depicts U87MG, Jurkat and HUVEC cells treated with SEMA3F (200, 600, 1800 ng/ml, bars from left to right) for 15 minutes (grey bars) or 30 minutes (black bars); as a positive control, HUVEC were treated with VEGF-A (25 ng/ml) for 15 and 30 minutes. In addition, HUVEC were pre-treated with SEMA3F (1800 ng/ml) or PBS as a control for 30 minutes and subsequently VEGF-A (25 ng/ml) was added to the culture for 15 and 30 minutes. PI-3K activity was analyzed by ELISA according to the manufacturer's instructions. Data represent the mean±SD of 3 experiments.
# SEMA3F inhibits Akt, mTOR, and S6K phosphorylation. To determine the effect of SEMA3F on intracellular signaling responses, levels of phosphokinases in the NRP2-expressing human glioblastoma cell line U87MG were profiled.
# Phospho-kinase array: The Human Phospho-Kinase Array Kit (ARY003) was obtained from R&D Systems. U87MG cells were treated with SEMA3F which was previously found to induce cytoskeletal collapse and inhibit RhoA activity (6). […] Thus, a concentration at 640 ng/ml was optimized to analyze SEMA3F signaling pathways. Cell lysates were collected at 30 minutes after SEMA3F treatment and the levels of phosphoproteins were analyzed with this array, according to the manufacturer's instructions.
molecule,measurement,setting,value
"SEMA3F: Human recombinant full-length His-Myc-tagged SEMA3F, secreted by transfected 293T cells and purified; class 3 semaphorin, NRP-2 ligand (protein, listed as Homo sapiens, His-Myc tag, Human recombinant full-length His-Myc-tagged SEMA3F, secreted by transfected 293T cells and purified; class 3 semaphorin, NRP-2 ligand) MLVAGLLLWASLLTGAWPSFPTQDHLPATPRVRLSFKELKATGTAHFFNFLLNTTDYRILLKDEDHDRMYVGSKDYVLSLDLHDINREPLIIHWAASPQRIEECVLSGKDVNGECGNFVRLIQPWNRTHLYVCGTGAYNPMCTYVNRGRRAQATPWTQTQAVRGRGSRATDGALRPMPTAPRQDYIFYLEPERLESGKGKCPYDPKLDTASALINEELYAGVYIDFMGTDAAIFRTLGKQTAMRTDQYNSRWLNDPSFIHAELIPDSAERNDDKLYFFFRERSAEAPQSPAVYARIGRICLNDDGGHCCLVNKWSTFLKARLVCSVPGEDGIETHFDELQDVFVQQTQDVRNPVIYAVFTSSGSVFRGSAVCVYSMADIRMVFNGPFAHKEGPNYQWMPFSGKMPYPRPGTCPGGTFTPSMKSTKDYPDEVINFMRSHPLMYQAVYPLQRRPLVVRTGAPYRLTTIAVDQVDAADGRYEVLFLGTDRGTVQKVIVLPKDDQELEELMLEEVEVFKDPAPVKTMTISSKRQQLYVASAVGVTHLSLHRCQAYGAACADCCLARDPYCAWDGQACSRYTASSKRRSRRQDVRHGNPIRQCRGFNSNANKNAVESVQYGVAGSAAFLECQPRSPQATVKWLFQRDPGDRRREIRAEDRFLRTEQGLLLRALQLSDRGLYSCTATENNFKHVVTRVQLHVLGRDAVHAALFPPLSMSAPPPPGAGPPTPPYQELAQLLAQPEVGLIHQYCQGYWRHVPPSPREAPGAPRSPEPQDQKKPRNRRHHPPDT",intensity of dot/phosphoprotein AMPKa1 (T174),"SEMA3F 640 ng/ml, Image J",0.269
same,intensity of dot/phosphoprotein AMPKa2 (T172),"SEMA3F 640 ng/ml, Image J",0.300
same,intensity of dot/phosphoprotein Akt (S473),"SEMA3F 640 ng/ml, Image J",0.396
same,intensity of dot/phosphoprotein Akt (T308),"SEMA3F 640 ng/ml, Image J",0.294
same,intensity of dot/phosphoprotein CREB (S133),"SEMA3F 640 ng/ml, Image J",0.295
same,intensity of dot/phosphoprotein Chk-2 (T68),"SEMA3F 640 ng/ml, Image J",0.297
same,"intensity of dot/phosphoprotein ERK1/2 (T202/Y204, T185/Y187)","SEMA3F 640 ng/ml, Image J",0.301
same,intensity of dot/phosphoprotein FAK (Y397),"SEMA3F 640 ng/ml, Image J",0.275
same,intensity of dot/phosphoprotein Fqr (Y412),"SEMA3F 640 ng/ml, Image J",0.264
same,intensity of dot/phosphoprotein Fyn (Y420),"SEMA3F 640 ng/ml, Image J",0.276
same,intensity of dot/phosphoprotein GSK-3a/b (S21/S9),"SEMA3F 640 ng/ml, Image J",0.284
same,intensity of dot/phosphoprotein HSP27 (S78/S82),"SEMA3F 640 ng/ml, Image J",0.277
same,intensity of dot/phosphoprotein Hck (Y411),"SEMA3F 640 ng/ml, Image J",0.270
same,"intensity of dot/phosphoprotein JNK pan (T183/Y185, T221/Y223)","SEMA3F 640 ng/ml, Image J",0.287
same,intensity of dot/phosphoprotein Lck (Y394),"SEMA3F 640 ng/ml, Image J",0.269
same,intensity of dot/phosphoprotein Lyn (Y397),"SEMA3F 640 ng/ml, Image J",0.269
same,"intensity of dot/phosphoprotein MEK1/2 (S218/S222, S222/S226)","SEMA3F 640 ng/ml, Image J",0.277
same,intensity of dot/phosphoprotein MSK1/2 (S376/S360),"SEMA3F 640 ng/ml, Image J",0.293
same,intensity of dot/phosphoprotein PLCq-1 (Y783),"SEMA3F 640 ng/ml, Image J",0.262
same,intensity of dot/phosphoprotein Paxillin (Y118),"SEMA3F 640 ng/ml, Image J",0.264
same,intensity of dot/phosphoprotein Pyk2 (Y402),"SEMA3F 640 ng/ml, Image J",0.251
same,intensity of dot/phosphoprotein RSK1/2 (S221/S227),"SEMA3F 640 ng/ml, Image J",0.307
same,intensity of dot/phosphoprotein RSK1/2/3 (S380/S386/S377),"SEMA3F 640 ng/ml, Image J",0.320
same,intensity of dot/phosphoprotein STAT1 (Y701),"SEMA3F 640 ng/ml, Image J",0.298
same,intensity of dot/phosphoprotein STAT2 (Y689),"SEMA3F 640 ng/ml, Image J",0.305
same,intensity of dot/phosphoprotein STAT3 (Y705),"SEMA3F 640 ng/ml, Image J",0.270
same,intensity of dot/phosphoprotein STAT4 (Y693),"SEMA3F 640 ng/ml, Image J",0.285
same,intensity of dot/phosphoprotein STAT5a (Y694),"SEMA3F 640 ng/ml, Image J",0.281
same,intensity of dot/phosphoprotein STAT5a/b (Y694/Y699),"SEMA3F 640 ng/ml, Image J",0.311
same,intensity of dot/phosphoprotein STAT5b (Y699),"SEMA3F 640 ng/ml, Image J",0.270
same,intensity of dot/phosphoprotein STAT6 (Y641),"SEMA3F 640 ng/ml, Image J",0.304
same,intensity of dot/phosphoprotein Src (Y419),"SEMA3F 640 ng/ml, Image J",0.289
same,intensity of dot/phosphoprotein TOR (S2448),"SEMA3F 640 ng/ml, Image J",0.281
same,intensity of dot/phosphoprotein Yes (Y426),"SEMA3F 640 ng/ml, Image J",0.289
same,intensity of dot/phosphoprotein b-Catenin,"SEMA3F 640 ng/ml, Image J",0.323
same,intensity of dot/phosphoprotein c-Jun (S63),"SEMA3F 640 ng/ml, Image J",0.263
same,intensity of dot/phosphoprotein eNOS (S1177),"SEMA3F 640 ng/ml, Image J",0.240
same,intensity of dot/phosphoprotein p27 (T157),"SEMA3F 640 ng/ml, Image J",0.249
same,intensity of dot/phosphoprotein p27 (T198),"SEMA3F 640 ng/ml, Image J",0.242
same,intensity of dot/phosphoprotein p38a (T180/Y182),"SEMA3F 640 ng/ml, Image J",0.268
same,intensity of dot/phosphoprotein p53 (S15),"SEMA3F 640 ng/ml, Image J",0.312
same,intensity of dot/phosphoprotein p53 (S46),"SEMA3F 640 ng/ml, Image J",0.321
same,intensity of dot/phosphoprotein p53 (S392),"SEMA3F 640 ng/ml, Image J",0.312
same,intensity of dot/phosphoprotein p70 S6 Kinase (T229),"SEMA3F 640 ng/ml, Image J",0.264
same,intensity of dot/phosphoprotein p70 S6 Kinase (T389),"SEMA3F 640 ng/ml, Image J",0.241
same,intensity of dot/phosphoprotein p70 S6 Kinase (T421/S424),"SEMA3F 640 ng/ml, Image J",0.299
same,Ratio AMPKa1 (T174),"SEMA3F vs Control, 640 ng/ml",92.7
same,Ratio AMPKa2 (T172),"SEMA3F vs Control, 640 ng/ml",94.5
same,Ratio Akt (S473),"SEMA3F vs Control, 640 ng/ml",77.4
same,Ratio Akt (T308),"SEMA3F vs Control, 640 ng/ml",92.6
same,Ratio CREB (S133),"SEMA3F vs Control, 640 ng/ml",91.3
same,Ratio Chk-2 (T68),"SEMA3F vs Control, 640 ng/ml",93.4
same,"Ratio ERK1/2 (T202/Y204, T185/Y187)","SEMA3F vs Control, 640 ng/ml",91.2
same,Ratio FAK (Y397),"SEMA3F vs Control, 640 ng/ml",87.7
same,Ratio Fqr (Y412),"SEMA3F vs Control, 640 ng/ml",94.1
same,Ratio Fyn (Y420),"SEMA3F vs Control, 640 ng/ml",93.1
same,Ratio GSK-3a/b (S21/S9),"SEMA3F vs Control, 640 ng/ml",91.0
same,Ratio HSP27 (S78/S82),"SEMA3F vs Control, 640 ng/ml",94.0
same,Ratio Hck (Y411),"SEMA3F vs Control, 640 ng/ml",91.4
same,"Ratio JNK pan (T183/Y185, T221/Y223)","SEMA3F vs Control, 640 ng/ml",91.5
same,Ratio Lck (Y394),"SEMA3F vs Control, 640 ng/ml",94.2
same,Ratio Lyn (Y397),"SEMA3F vs Control, 640 ng/ml",93.7
same,"Ratio MEK1/2 (S218/S222, S222/S226)","SEMA3F vs Control, 640 ng/ml",92.8
same,Ratio MSK1/2 (S376/S360),"SEMA3F vs Control, 640 ng/ml",92.4
same,Ratio PLCq-1 (Y783),"SEMA3F vs Control, 640 ng/ml",95.1
same,Ratio Paxillin (Y118),"SEMA3F vs Control, 640 ng/ml",95.8
same,Ratio Pyk2 (Y402),"SEMA3F vs Control, 640 ng/ml",93.1
same,Ratio RSK1/2 (S221/S227),"SEMA3F vs Control, 640 ng/ml",97.8
same,Ratio RSK1/2/3 (S380/S386/S377),"SEMA3F vs Control, 640 ng/ml",98.8
same,Ratio STAT1 (Y701),"SEMA3F vs Control, 640 ng/ml",98.2
same,Ratio STAT2 (Y689),"SEMA3F vs Control, 640 ng/ml",95.3
same,Ratio STAT3 (Y705),"SEMA3F vs Control, 640 ng/ml",93.4
same,Ratio STAT4 (Y693),"SEMA3F vs Control, 640 ng/ml",96.4
same,Ratio STAT5a (Y694),"SEMA3F vs Control, 640 ng/ml",94.8
same,Ratio STAT5a/b (Y694/Y699),"SEMA3F vs Control, 640 ng/ml",90.1
same,Ratio STAT5b (Y699),"SEMA3F vs Control, 640 ng/ml",92.6
same,Ratio STAT6 (Y641),"SEMA3F vs Control, 640 ng/ml",96.3
same,Ratio Src (Y419),"SEMA3F vs Control, 640 ng/ml",91.0
same,Ratio TOR (S2448),"SEMA3F vs Control, 640 ng/ml",91.8
same,Ratio Yes (Y426),"SEMA3F vs Control, 640 ng/ml",94.6
same,Ratio b-Catenin,"SEMA3F vs Control, 640 ng/ml",91.6
same,Ratio c-Jun (S63),"SEMA3F vs Control, 640 ng/ml",94.3
same,Ratio eNOS (S1177),"SEMA3F vs Control, 640 ng/ml",93.9
same,Ratio p27 (T157),"SEMA3F vs Control, 640 ng/ml",94.3
same,Ratio p27 (T198),"SEMA3F vs Control, 640 ng/ml",94.0
same,Ratio p38a (T180/Y182),"SEMA3F vs Control, 640 ng/ml",91.8
same,Ratio p53 (S15),"SEMA3F vs Control, 640 ng/ml",96.7
same,Ratio p53 (S46),"SEMA3F vs Control, 640 ng/ml",93.6
same,Ratio p53 (S392),"SEMA3F vs Control, 640 ng/ml",94.0
same,Ratio p70 S6 Kinase (T229),"SEMA3F vs Control, 640 ng/ml",100.0
same,Ratio p70 S6 Kinase (T389),"SEMA3F vs Control, 640 ng/ml",95.6
same,Ratio p70 S6 Kinase (T421/S424),"SEMA3F vs Control, 640 ng/ml",97.4
